Where “and” joins values, the source holds several entries; their conditions need not be identical. Equal values may be shown once. Read-outs that look alike come from different tables or passages of the source.

The results in this text go back to US11351268B2, “FGF21 C-terminal peptide optimization” (INDIANA UNIVERSITY RESEARCH AND TECHNOLOGY CORPORATION, priority 2016, dated 2022).

One assay concerns the target T1, mouse KLB (Mus musculus, UniProt P16092+Q99N32).
T1 construct: expressed in transfected cells
In words: agonism in cells overexpressing mouse KLB. Format: cell-based. Conditions: FIG. 11B, read-out: potency (agonism).

The test system of the next assay is FGF21 receptor. In words: Erk1/2 phosphorylation assay: agonist activity in 293T HEK hKLB cells. It is filed as cell-based, human. Conditions: for IC50: full length FGF21 analogs, tested in triplicate. The procedure:
Cells were cultured in 10% Fetal Bovine Serum containing DMEM High glucose GLUTAMAX® at 37 C, 95% humidity, 5% CO2. For generating the cell line with stable expression, human KLB gene was synthesized by Genscript and subcloned into pcDNA3.1(+) with ZEOCIN® resistance vector (INVITROGEN®) by NheI and NotI restriction enzyme sites. HEK 293T cells were obtained from ATCC and were transiently transfected at 80% confluency using Lipofectamine 3000 (Invitrogen). Selection for KLB-expressing cells was initiated 48 hours post-transfection in the growth media containing 100 μg/ml of ZEOCIN® (Gibco) and continued for 4 weeks with fresh media added every third day. Human KLB expression in pooled cells was confirmed by Western blot and a functional FGF21 MAPK phosphorylation assay.
293 HEK cells expressing hKLB were plated to 90% confluency in 96 well plates coated with poly-D-Lysine. Cells were serum starved for three hours in 0.1% BSA containing media prior to stimulation with protein and/or an antagonist peptide for ten minutes at 37° C. The cell lysate was used for the detection of phospho-Erk1/2 levels by AlphaSureFire kit using the prescribed protocol. The degree of biochemical activation was recorded and analyzed using Origin software by logistic curve fitting. Tests at each concentration were done in triplicates, and the standard deviation is as shown in the graphs. The calculation of maximal activities was done keeping the FGF21 157-181 or FGF19 169-194 peptide activity as standard. The difference between the Erk1/2 phosphorylation signal for the highest (10 μM) and the lowest (0 μM) tested dose for native peptide was considered as 100% and accordingly all the other values were assigned.

The nature of assay [1]: in vivo administration of FGF analogs to mice on diabetogenic diet. The following applies: 0.3 or 1.0 mg/kg daily subcutaneous, relative to native FGF21; for change in body weight: 6 days. Also noted: species or system C57Bl/6 mice. As to the method:
C57Bl/6 mice were obtained from Jackson Laboratories and fed a diabetogenic diet from Research Diets: a high-sucrose diet with 58% kcal from fat. Mice were group-housed on a 12:12-h light-dark cycle at 22° C. with free access to food and water. All studies were approved by and performed according to the guidelines of the Institutional Animal Care and Use Committee of the University of Cincinnati. All mice were treated by daily subcutaneous injections delivered in physiologically buffered saline at a dose of 0.3 or 1 mg/kg. Animals were weighed and food consumption was measured each day.
Unless indicated otherwise, all statistical analyses were performed using GraphPad Prism. The analysis of the results obtained in the in vivo experiments was performed using one-way ANOVAs followed by Tukey post hoc tests. P values lower than 0.05 were considered significant. The results are presented as means±s.e.m. of 7-8 replicates per group. Receptor activation data is ±s.d.
The effect of FGF analog V2-0278-1A on mice was investigated by administering either vehicle, FGF21 (at 0.3 mg/kg or 1.0 mg/kg) or V2-0278-1A (at 0.3 mg/kg or 1.0 mg/kg) and monitoring weight over the course of 6 days of treatment.

The mark [2] stands for this setting: FIG. 11A, cells overexpressing human KLB, read-out: potency (agonism).
[3] abbreviates: FIGS. 9A/9B, full length proteins, Erk1/2 phosphorylation, read-out: EC-50.
Setting [4] is: FIG. 12, cells overexpressing human KLB, read-out: potency.

T1 sequence (Q99N32 whole entry): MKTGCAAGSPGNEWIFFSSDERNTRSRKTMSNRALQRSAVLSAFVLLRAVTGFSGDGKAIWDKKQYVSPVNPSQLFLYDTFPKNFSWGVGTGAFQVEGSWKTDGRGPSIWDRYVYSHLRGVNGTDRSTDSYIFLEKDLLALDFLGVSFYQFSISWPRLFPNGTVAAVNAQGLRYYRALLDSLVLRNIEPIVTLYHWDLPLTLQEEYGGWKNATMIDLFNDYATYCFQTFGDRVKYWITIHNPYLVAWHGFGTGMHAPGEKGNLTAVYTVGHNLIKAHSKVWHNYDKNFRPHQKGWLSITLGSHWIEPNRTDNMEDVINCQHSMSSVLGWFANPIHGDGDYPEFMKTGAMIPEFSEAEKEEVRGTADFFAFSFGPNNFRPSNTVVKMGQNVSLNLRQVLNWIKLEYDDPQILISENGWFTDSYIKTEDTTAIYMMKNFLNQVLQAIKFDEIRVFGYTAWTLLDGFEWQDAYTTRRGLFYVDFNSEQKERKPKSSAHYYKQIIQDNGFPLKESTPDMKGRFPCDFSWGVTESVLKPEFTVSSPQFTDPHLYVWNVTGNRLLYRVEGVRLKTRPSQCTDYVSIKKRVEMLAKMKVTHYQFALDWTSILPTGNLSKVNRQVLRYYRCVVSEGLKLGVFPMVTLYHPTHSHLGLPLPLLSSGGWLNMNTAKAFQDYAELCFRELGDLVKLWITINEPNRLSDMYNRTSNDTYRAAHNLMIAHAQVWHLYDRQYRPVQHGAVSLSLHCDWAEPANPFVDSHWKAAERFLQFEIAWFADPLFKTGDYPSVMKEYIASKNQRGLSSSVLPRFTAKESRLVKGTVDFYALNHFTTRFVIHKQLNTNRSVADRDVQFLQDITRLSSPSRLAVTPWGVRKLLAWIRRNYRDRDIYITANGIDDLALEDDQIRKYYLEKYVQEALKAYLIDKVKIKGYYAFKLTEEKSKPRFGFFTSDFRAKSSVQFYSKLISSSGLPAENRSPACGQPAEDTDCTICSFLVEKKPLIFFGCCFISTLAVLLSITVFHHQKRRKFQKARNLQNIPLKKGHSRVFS
T1 sequence (P16092 22-822): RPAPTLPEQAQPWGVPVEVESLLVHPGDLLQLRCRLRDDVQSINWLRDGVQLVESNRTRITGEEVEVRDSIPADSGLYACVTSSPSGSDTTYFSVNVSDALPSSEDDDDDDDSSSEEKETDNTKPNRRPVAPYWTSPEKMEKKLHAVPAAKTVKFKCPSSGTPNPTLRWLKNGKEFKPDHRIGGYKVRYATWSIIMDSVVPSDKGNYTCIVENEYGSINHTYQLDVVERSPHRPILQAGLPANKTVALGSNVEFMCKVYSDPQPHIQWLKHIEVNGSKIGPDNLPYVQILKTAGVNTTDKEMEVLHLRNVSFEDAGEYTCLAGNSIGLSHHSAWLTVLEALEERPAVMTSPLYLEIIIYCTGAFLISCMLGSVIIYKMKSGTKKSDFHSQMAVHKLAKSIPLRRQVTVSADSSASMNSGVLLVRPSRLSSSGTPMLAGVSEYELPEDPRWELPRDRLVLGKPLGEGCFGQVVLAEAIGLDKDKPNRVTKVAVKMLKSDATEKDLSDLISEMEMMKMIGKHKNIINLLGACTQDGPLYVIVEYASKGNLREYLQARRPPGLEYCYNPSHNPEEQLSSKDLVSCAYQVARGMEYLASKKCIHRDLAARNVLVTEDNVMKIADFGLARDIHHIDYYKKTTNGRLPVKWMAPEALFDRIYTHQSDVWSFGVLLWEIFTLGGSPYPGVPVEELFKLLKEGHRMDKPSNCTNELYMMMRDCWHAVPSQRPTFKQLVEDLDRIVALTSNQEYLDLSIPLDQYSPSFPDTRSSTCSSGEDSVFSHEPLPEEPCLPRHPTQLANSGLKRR
Sequence of FGF21 receptor (Q86Z14 whole entry): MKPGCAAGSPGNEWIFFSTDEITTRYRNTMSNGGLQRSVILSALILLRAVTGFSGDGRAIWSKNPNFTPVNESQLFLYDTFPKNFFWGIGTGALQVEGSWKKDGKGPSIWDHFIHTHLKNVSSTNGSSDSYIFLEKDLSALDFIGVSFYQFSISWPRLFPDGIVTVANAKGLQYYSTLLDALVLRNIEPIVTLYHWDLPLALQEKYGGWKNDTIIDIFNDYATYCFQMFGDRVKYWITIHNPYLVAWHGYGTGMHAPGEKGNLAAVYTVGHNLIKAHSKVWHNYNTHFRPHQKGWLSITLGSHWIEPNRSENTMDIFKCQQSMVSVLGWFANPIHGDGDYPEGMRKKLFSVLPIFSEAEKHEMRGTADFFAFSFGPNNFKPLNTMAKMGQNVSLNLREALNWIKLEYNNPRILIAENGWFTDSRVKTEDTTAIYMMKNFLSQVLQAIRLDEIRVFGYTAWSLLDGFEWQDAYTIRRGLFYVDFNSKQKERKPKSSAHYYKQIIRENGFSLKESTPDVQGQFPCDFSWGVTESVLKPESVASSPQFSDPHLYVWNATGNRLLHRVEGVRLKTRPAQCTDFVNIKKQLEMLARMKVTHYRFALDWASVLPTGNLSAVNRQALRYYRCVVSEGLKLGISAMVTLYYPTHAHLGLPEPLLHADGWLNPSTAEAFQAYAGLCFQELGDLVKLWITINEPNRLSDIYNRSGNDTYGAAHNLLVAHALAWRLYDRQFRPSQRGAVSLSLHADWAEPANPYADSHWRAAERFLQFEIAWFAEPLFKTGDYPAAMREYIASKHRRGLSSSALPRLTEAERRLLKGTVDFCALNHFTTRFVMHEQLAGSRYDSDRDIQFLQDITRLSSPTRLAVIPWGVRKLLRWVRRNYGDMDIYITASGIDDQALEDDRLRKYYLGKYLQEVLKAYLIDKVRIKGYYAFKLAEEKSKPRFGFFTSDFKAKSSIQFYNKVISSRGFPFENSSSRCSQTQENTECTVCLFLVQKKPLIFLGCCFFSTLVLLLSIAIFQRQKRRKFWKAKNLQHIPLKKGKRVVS

On to “FGF19: native full length FGF19 protein [reference compound]”, for which the results for the EC50 with mouse KLB, with FGF21 receptor (setting [2]) and in the assay on FGF21 receptor (setting [3]) were 25.7 ± 21.3 nM, 65.8 ± 58.2 nM and 148 nM, respectively. In the assay on FGF21 receptor (FIGS. 9A/9B, full length proteins, Erk1/2 phosphorylation), the “% maximal activity” value is 27%.

B1: 0278-1A: fusion of the N-terminus of FGF21 and C-terminal peptide FGF19 A26 (protein, listed as Homo sapiens)
chain: HPIPDSSPLLQFGGQVRQRYLYTDDAQQTEAHLEIREDGTVGGAADQSPESLLQLKALKPGVIQILGVKTSRFLCQRPDGALYGSLHFDPEACSFRELLLEDGYNVYQSEAHGLPLHLPGNKSPHRDPAPRGPARFLPLPGLPPALPEPPGILAPQLETDSMDPFGLVTGLEAVRSPSFEA
B1: the EC50 in the assay with mouse KLB worked out at 2.15 ± 0.54 nM; in the assay on FGF21 receptor (setting [2]) it was 1.82 ± 0.37 nM; with FGF21 receptor (setting [4]), 1.13 ± 0.28 nM.

B2: V2-0278-1A: 0278-1A with A31C, G43C, L98D, L100K, N121D, D127K (protein, listed as Homo sapiens)
chain: HPIPDSSPLLQFGGQVRQRYLYTDDAQQTECHLEIREDGTVGCAADQSPESLLQLKALKPGVIQILGVKTSRFLCQRPDGALYGSLHFDPEACSFREDLKEDGYNVYQSEAHGLPLHLPGDKSPHRKPAPRGPARFLPLPGLPPALPEPPGILAPQLETDSMDPFGLVTGLEAVRSPSFEA
As for B2, in assay [1], the “change in body weight” value is reported as “enhanced weight loss” and the food intake result is on record as “reduced food intake”. For the same molecule, in assay [1] (listed as 0361), the “change in body weight” value is recorded as “superior change in body weight” and the food intake result is on record as “greater reduction in total food intake”. Also, the EC50 with FGF21 receptor (setting [4]) came to 0.35 ± 0.12 nM. Moreover, the “fold higher potency versus 0278-1A” value with FGF21 receptor (cells overexpressing human KLB) is 2-3 ×.

B3: FGF21 482K: analog of FGF21 482A where the C-terminal alanine is replaced with a lysine (protein)
chain: HPIPDSSPLLQFGGQVRQRYLYTDDAQQTECHLEIREDGTVGCAADQSPESLLQLKALKPGVIQILGVKTSRFLCQRPDGALYGSLHFDPEACSFREDLKEDGYNVYQSEAHGLPLHLPGDKSPHRKPAPRGPARFLPLPGLPPALPEPPGILAPQPPDVSSMDPFGLVGPSQGRSPSFEK
The term IC50 denotes the midpoint of a concentration-inhibition curve. High values mean weaker potency in that assay, low ones greater potency in that assay. In the assay with FGF21 receptor, B3 registered an IC50 of 1.81 ± 0.18 nM.

B4: FGF21 470A: modified FGF21 N-terminus fused to peptide 0470 (protein, listed as Homo sapiens)
chain: HPIPDSSPLLQFGGQVRQRYLYTDDAQQTECHLEIREDGTVGCAADQSPESLLQLKALKPGVIQILGVKTSRFLCQRPDGALYGSLHFDPEACSFREDLKEDGYNVYQSEAHGLPLHLPGDKSPHRKPAPRGPARFLPLPGLPPALPEPPGILAPQPPDVGSMDPFGLVGRSQGRSPSFEA
B4 displayed an IC50 in the assay on FGF21 receptor of 0.61 ± 0.06 nM.

B5: FGF21 431A: FGF21 N-terminus (A31C, G43C, L98D, L100K, N121D, D127K) fused to peptide 0431 (protein, listed as Homo sapiens)
chain: HPIPDSSPLLQFGGQVRQRYLYTDDAQQTECHLEIREDGTVGCAADQSPESLLQLKALKPGVIQILGVKTSRFLCQRPDGALYGSLHFDPEACSFREDLKEDGYNVYQSEAHGLPLHLPGDKSPHRKPAPRGPARFLPLPGLPPALPEPPGILAPQPPDVGSMDPFGLVGPSQGRSPSFEA
For the molecule B5, the 50% inhibitory concentration (IC50) in the assay on FGF21 receptor amounted to 0.51 ± 0.21 nM.

B6: FGF21 486K: analog of FGF21 486A where the C-terminal alanine is replaced with a lysine (protein)
chain: HPIPDSSPLLQFGGQVRQRYLYTDDAQQTECHLEIREDGTVGCAADQSPESLLQLKALKPGVIQILGVKTSRFLCQRPDGALYGSLHFDPEACSFREDLKEDGYNVYQSEAHGLPLHLPGDKSPHRKPAPRGPARFLPLPGLPPALPEPPGILAPQPPDVGSSDPFGLVGPSQGRSPSFEK
B6 showed an IC50 with FGF21 receptor of 3.16 ± 0.56 nM.

B7: FGF21 431K: analog of FGF21 431A where the C-terminal alanine is replaced with a lysine (protein)
chain: HPIPDSSPLLQFGGQVRQRYLYTDDAQQTECHLEIREDGTVGCAADQSPESLLQLKALKPGVIQILGVKTSRFLCQRPDGALYGSLHFDPEACSFREDLKEDGYNVYQSEAHGLPLHLPGDKSPHRKPAPRGPARFLPLPGLPPALPEPPGILAPQPPDVGSMDPFGLVGPSQGRSPSFEK
In the assay on FGF21 receptor, B7 came in with an IC50 of 4.3 ± 0.07 nM.

B8: FGF21 486A: modified FGF21 N-terminus fused to peptide 0486 (protein, listed as Homo sapiens)
chain: HPIPDSSPLLQFGGQVRQRYLYTDDAQQTECHLEIREDGTVGCAADQSPESLLQLKALKPGVIQILGVKTSRFLCQRPDGALYGSLHFDPEACSFREDLKEDGYNVYQSEAHGLPLHLPGDKSPHRKPAPRGPARFLPLPGLPPALPEPPGILAPQPPDVGSSDPFGLVGPSQGRSPSFEA
In the assay on FGF21 receptor, B8 yielded an IC50 of 0.21 ± 0.03 nM.

B9: FGF21 480A: modified FGF21 N-terminus fused to peptide 0480 (protein, listed as Homo sapiens)
chain: HPIPDSSPLLQFGGQVRQRYLYTDDAQQTECHLEIREDGTVGCAADQSPESLLQLKALKPGVIQILGVKTSRFLCQRPDGALYGSLHFDPEACSFREDLKEDGYNVYQSEAHGLPLHLPGDKSPHRKPAPRGPARFLPLPGLPPALPEPPGILAPQPPDVFSMDPFGLVGPSQGRSPSFEA
With B9, the IC50 in the assay with FGF21 receptor was found to be 0.43 ± 0.04 nM.

B10: FGF21 482A: modified FGF21 N-terminus fused to peptide 0482 (protein, listed as Homo sapiens)
chain: HPIPDSSPLLQFGGQVRQRYLYTDDAQQTECHLEIREDGTVGCAADQSPESLLQLKALKPGVIQILGVKTSRFLCQRPDGALYGSLHFDPEACSFREDLKEDGYNVYQSEAHGLPLHLPGDKSPHRKPAPRGPARFLPLPGLPPALPEPPGILAPQPPDVSSMDPFGLVGPSQGRSPSFEA
The molecule B10 came in with an IC50 with FGF21 receptor of 0.22 ± 0.03 nM.

B11: FGF21 480K: analog of FGF21 480A where the C-terminal alanine is replaced with a lysine (protein)
chain: HPIPDSSPLLQFGGQVRQRYLYTDDAQQTECHLEIREDGTVGCAADQSPESLLQLKALKPGVIQILGVKTSRFLCQRPDGALYGSLHFDPEACSFREDLKEDGYNVYQSEAHGLPLHLPGDKSPHRKPAPRGPARFLPLPGLPPALPEPPGILAPQPPDVFSMDPFGLVGPSQGRSPSFEK
In the assay on FGF21 receptor, B11 had an IC50 of 1.62 ± 0.54 nM.

B12: FGF21 470K: analog of FGF21 470A where the C-terminal alanine is replaced with a lysine (protein)
chain: HPIPDSSPLLQFGGQVRQRYLYTDDAQQTECHLEIREDGTVGCAADQSPESLLQLKALKPGVIQILGVKTSRFLCQRPDGALYGSLHFDPEACSFREDLKEDGYNVYQSEAHGLPLHLPGDKSPHRKPAPRGPARFLPLPGLPPALPEPPGILAPQPPDVGSMDPFGLVGRSQGRSPSFEK
In the case of B12, the IC50 in the assay on FGF21 receptor was 6.14 ± 1.93 nM.

B13: FGF21: native full length mature FGF21 protein (protein, listed as Homo sapiens)
chain: HPIPDSSPLLQFGGQVRQRYLYTDDAQQTEAHLEIREDGTVGGAADQSPESLLQLKALKPGVIQILGVKTSRFLCQRPDGALYGSLHFDPEACSFRELLLEDGYNVYQSEAHGLPLHLPGNKSPHRDPAPRGPARFLPLPGLPPALPEPPGILAPQPPDVGSSDPLSMVGPSQGRSPSYAS
Turning to B13, the EC50 is 3.96 ± 1.51 nM in the assay with mouse KLB; 8.42 ± 4.1 nM with FGF21 receptor (setting [2]); 4.5 nM and 3.3 nM with FGF21 receptor (setting [3]).
